Literature values in PMC4964448.

Legend:
PSGL-1 (Homo sapiens) = PSGL-1 (Homo sapiens) (UniProt Q14242)
MMP9 (Homo sapiens) = MMP9 (Homo sapiens) (UniProt P14780)
Chain of UniProt P14780 (P14780 94-707): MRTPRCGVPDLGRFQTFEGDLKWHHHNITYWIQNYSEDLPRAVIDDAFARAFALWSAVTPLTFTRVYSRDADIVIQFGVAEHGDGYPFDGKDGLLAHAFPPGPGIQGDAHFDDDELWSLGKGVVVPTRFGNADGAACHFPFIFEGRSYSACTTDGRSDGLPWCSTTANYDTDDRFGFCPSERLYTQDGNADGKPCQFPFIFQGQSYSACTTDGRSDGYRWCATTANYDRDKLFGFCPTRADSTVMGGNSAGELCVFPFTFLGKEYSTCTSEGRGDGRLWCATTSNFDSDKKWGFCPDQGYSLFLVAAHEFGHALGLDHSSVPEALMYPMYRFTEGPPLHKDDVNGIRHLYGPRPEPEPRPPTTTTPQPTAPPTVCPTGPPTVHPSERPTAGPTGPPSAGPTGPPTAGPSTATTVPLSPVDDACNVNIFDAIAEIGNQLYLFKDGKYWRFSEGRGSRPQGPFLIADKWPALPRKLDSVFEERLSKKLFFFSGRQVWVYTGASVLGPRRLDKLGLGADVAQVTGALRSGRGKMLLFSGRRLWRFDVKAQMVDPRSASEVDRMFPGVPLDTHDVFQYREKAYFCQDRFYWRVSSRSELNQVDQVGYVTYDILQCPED

Chain of UniProt Q14242 (Q14242 42-320): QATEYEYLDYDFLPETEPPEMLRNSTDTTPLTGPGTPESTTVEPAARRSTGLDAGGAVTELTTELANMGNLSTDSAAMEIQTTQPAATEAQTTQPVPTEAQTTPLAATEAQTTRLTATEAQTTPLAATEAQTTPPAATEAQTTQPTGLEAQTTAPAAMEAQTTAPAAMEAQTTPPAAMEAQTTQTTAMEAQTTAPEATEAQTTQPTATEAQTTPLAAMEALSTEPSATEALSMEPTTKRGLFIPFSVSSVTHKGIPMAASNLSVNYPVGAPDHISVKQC

Q: Which Kd (PSGL-1 (Homo sapiens)) does the source give for SSL5 (from UniProt Q2G1S6) here?
A: The Kd was 0.82 µM.

Q: And the Kd (MMP9 (Homo sapiens))?
A: The Kd was 0.0019 µM.
